Laboratory results reported in PMC11500415, “Chemical inhibition of stomatal differentiation by perturbation of the master-regulatory bHLH heterodimer via an ACT-Like domain” (Nature Communications, 2024).

T1: recombinant SCRM (1-494) (A. thaliana, UniProt Q9LSE2 1-494)
T1 construct: Used in ITC and BLI; In BLI one partner was loaded GST-tagged on anti-GST probes; also called SCREAM; ICE1; source: E. coli BL21, purified (glutathione resin, thrombin, Superdex-200); not shown: GST, N-terminal, cleaved
T1 sequence (looked up): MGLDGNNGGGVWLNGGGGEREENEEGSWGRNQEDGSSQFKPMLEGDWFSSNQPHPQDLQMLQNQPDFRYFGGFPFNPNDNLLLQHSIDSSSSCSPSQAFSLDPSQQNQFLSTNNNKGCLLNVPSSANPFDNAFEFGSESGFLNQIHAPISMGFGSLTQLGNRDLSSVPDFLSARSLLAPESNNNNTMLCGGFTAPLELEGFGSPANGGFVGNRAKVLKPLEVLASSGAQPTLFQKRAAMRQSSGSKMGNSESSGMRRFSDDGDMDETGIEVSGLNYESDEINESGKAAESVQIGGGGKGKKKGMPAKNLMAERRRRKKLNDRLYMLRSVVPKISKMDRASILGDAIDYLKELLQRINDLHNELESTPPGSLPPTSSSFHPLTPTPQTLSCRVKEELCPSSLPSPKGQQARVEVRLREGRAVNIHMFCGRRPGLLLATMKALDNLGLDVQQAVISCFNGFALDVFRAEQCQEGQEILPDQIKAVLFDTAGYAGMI


Experiments:
Details in all cases: both partners purified
[1] = target: T1, recombinant SCRM (1-494); test: BLI; Octet Red96, anti-GST probes loaded with 500 nM GST tagged protein, 30 °C, 1× PBS, 2% DMSO, 0.02% Tween20; MUTE pre-incubated with Stomidazolone
[2] = target: T1, recombinant SCRM (1-494); test: BLI; Octet Red96, anti-GST probes loaded with 500 nM GST tagged protein, 30 °C, 1× PBS, 2% DMSO, 0.02% Tween20; 1:1 model, steady-state analysis; without Stomidazolone
[3] = target: T1, recombinant SCRM (1-494); test: ITC; Malvern PEAQ-ITC, 30 °C, PBS pH 7.4, 2% DMSO, 1 mM DTT; without Stomidazolone
[4] = target: T1, recombinant SCRM (1-494); test: ITC; Malvern PEAQ-ITC, 30 °C, PBS pH 7.4, 2% DMSO, 1 mM DTT; MUTE pre-incubated with Stomidazolone

Binder | Kd [1] [nM] | Kd [2] [nM] | Kd [3] [nM] | Kd [4] [nM]
recombinant MUTE (1-202), as used in BLI (natural protein, A. thaliana, UniProt Q9M8K6 1-202, looked up, also called full-length MUTE; source: E. coli BL21, purified (glutathione resin)) MSHIAVERNRRRQMNEHLKSLRSLTPCFYIKRGDQASIIGGVIEFIKELQQLVQVLESKKRRKTLNRPSFPYDHQTIEPSSLGAATTRVPFSRIENVMTTSTFKEVGACCNSPHANVEAKISGSNVVLRVVSRRIVGQLVKIISVLEKLSFQVLHLNISSMEETVLYFFVVKIGLECHLSLEELTLEVQKSFVSDEVIVSTN | 856 ± 15.1 | 7.5 ± 1.2 |  | 
recombinant MUTE (1-202), as used in ITC (natural protein, A. thaliana, UniProt Q9M8K6 1-202, looked up, also called full-length MUTE; source: E. coli BL21, purified (glutathione resin, thrombin, Superdex-200); not shown: GST, N-terminal, cleaved) MSHIAVERNRRRQMNEHLKSLRSLTPCFYIKRGDQASIIGGVIEFIKELQQLVQVLESKKRRKTLNRPSFPYDHQTIEPSSLGAATTRVPFSRIENVMTTSTFKEVGACCNSPHANVEAKISGSNVVLRVVSRRIVGQLVKIISVLEKLSFQVLHLNISSMEETVLYFFVVKIGLECHLSLEELTLEVQKSFVSDEVIVSTN |  |  | 9.5 ± 1.6 | 900 ± 34.5
